{"source": "paper PMC9504981", "biological_target": "10×Histidine-tagged amino acids 1-416 of potato virus X RNA-dependent RNA polymerase, 10×His-MET_(1-416) (potato virus X)", "assay": "cross-linking"}
{"substance": "10×Histidine-tagged amino acids 1-416 of potato virus X RNA-dependent RNA polymerase, 10×His-MET_(1-416) (domain or fragment)", "values": [{"measurement": "stoichiometry N", "value": "> 5"}]}
